The source of these data is paper PMC6748660.

The assay addresses full-length mScarlet-tagged tau (2N4R) (human) (UniProt P10636). The experiment in a line: TIRF microscopy, condensate enrichment assay.

As to “GFP-tagged isolated C-terminus of tau (domain or fragment)”, the fold enrichment within mScarlet-2N4R condensates over the lattice was 1.2 fold.
